{"source": "patent US20230312739A1", "about": "(BIOTHEUS, published 2023)", "key": {"[1]": {"molecular_target": "T1, human CD73 on the cell surface (tumor cells endogenously expressing human CD73; CHOS-human CD73) (human, UniProt P21589 27-549)", "T1 construct": "The endogenous CD73 of the human tumor lines (MDA-MB-231, Calu6, SK-ME-S, H2030, SKLU1, BT549, A375, HCC44) is treated as the same protein", "T1 sequence": "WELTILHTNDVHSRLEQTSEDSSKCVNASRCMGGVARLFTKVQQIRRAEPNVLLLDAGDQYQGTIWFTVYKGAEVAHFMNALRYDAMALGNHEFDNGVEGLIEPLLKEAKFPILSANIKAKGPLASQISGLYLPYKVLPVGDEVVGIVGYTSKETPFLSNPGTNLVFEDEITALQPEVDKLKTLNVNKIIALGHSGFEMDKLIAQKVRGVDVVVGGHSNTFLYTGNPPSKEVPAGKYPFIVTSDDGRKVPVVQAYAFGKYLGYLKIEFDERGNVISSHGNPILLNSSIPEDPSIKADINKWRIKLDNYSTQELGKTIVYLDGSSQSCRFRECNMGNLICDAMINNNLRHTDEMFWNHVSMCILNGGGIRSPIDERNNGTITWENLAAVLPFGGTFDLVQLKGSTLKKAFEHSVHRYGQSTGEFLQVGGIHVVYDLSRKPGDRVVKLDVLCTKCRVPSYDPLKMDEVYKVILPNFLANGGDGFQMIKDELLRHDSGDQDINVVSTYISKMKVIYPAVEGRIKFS", "experiment": "full-field cell scanning analyzer (Celigo), percent fluorescent cells, MDA-MB-231 cells endogenously expressing human CD73", "description": "(§1) Experimental method: 10,000 cells were plated on a flat-bottom 96-well plate with 100 μL DMEM+10% FBS/well, cultured overnight so that the cells adhered to the well, and the supernatant was discarded on the next day. Serial 3-fold dilutions of antibody for 8 points were performed by diluting ⅓ of the total volume (100 μL) in 200 μL DMEM. 100 μL of the diluted antibody was added to each well of the cell plate (the supernatants of fused clones or subclones were used for screening), 100 μL of DMEM was added to the corresponding negative control well, and incubation was performed at room temperature for 1 hour. After the supernatant was discarded, 100 μL of secondary antibody (DyLight488 goat anti-mouse IgG (Abcam, Cat. No. ab97015)) was added to each well at a concentration of 5 μg/mL (diluted in DMEM), and incubation was performed for 0.5 hours at room temperature. After staining, the supernatant was discarded, followed by washing once with PBS+2% FBS, then 100 μL of PBS+2% FBS was added to each well, and then reading was performed on analyzer. A full-field cell scanning analyzer (Nexcelom Company, model Celigo® Image Cytometer) was used to measure the reading of the experimental plate. […] The binding effect of the anti-CD73 antibody to the CD73-expressing cell line was determined according to the percentage. […]"}, "[2]": {"molecular_target": "T2, CD73 on cynomolgus macaques CD3+CD8+ T cells (cynomolgus macaques, UniProt A0A2K5V5U7 27-549)", "T2 construct": "whole, on cells; also called cynomolgus macaques T cells; cynomolgus macaques PBMC", "T2 sequence": "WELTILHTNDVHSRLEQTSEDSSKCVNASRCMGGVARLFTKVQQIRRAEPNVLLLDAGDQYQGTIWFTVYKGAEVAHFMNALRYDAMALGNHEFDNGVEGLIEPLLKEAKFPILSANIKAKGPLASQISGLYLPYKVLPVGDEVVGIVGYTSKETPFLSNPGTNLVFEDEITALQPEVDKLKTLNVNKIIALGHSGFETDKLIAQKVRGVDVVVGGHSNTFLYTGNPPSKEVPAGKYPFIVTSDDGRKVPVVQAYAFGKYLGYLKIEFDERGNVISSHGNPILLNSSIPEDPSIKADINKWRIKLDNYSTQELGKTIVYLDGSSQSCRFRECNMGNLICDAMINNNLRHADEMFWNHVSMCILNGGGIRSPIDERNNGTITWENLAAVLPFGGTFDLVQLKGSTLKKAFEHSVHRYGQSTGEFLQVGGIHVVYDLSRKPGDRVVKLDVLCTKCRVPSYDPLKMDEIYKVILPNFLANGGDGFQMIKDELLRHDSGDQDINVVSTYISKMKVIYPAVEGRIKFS", "experiment": "flow cytometry on cynomolgus macaque PBMC, CD3+CD8+ T cells, donor 1300M", "description": "Monkey blood samples from two donors (1132F and 1300M) were obtained from Medicilon. Peripheral blood mononuclear cells (PBMCs) were isolated using a Ficoll density gradient centrifugation system. The PBMCs were incubated with the antibody to be tested, then the antibodies bound on the cells were stained with fluorochrome-labeled secondary antibodies (DyLight488 goat anti-mouse IgG, Abcam Cat. No. ab97015; DyLight488 goat anti-human IgG, Abcam Cat. No. ab97003), and the fluorochrome-labeled antibodies against CD3+ and CD8+ were used to recognize T cells. Together with the unstained control samples and the fluorescence compensation control samples, all the samples were run on a flow cytometer to detect the binding of the antibodies to cynomolgus macaques T cells."}, "[3]": {"molecular_target": "T1, human CD73 on the cell surface (tumor …)", "experiment": "full-field cell scanning analyzer (Celigo), percent fluorescent cells, SK-ME-S cells endogenously expressing human CD73", "description": "as §1"}}}
{"binder": "murine antibody 13D12 (antibody, V domains shown, Mouse monoclonal antibody purified from hybridoma supernatant; also called mouse monoclonal antibody 13D12) VH: DVKLQESGPAMVKPSQSLSLTCTVTGYSITSGYDWHWIRLFPGNKLEWMGYISYSGYTDYSPSLKSRISITHDTSKNHFFLKLHSVTTEDTATYYCTRGDHSYAMDYWGQGTSVTVS VL: DIVMTQSHKFMSTSVGDRVSITCKASQAVGTAVAWYQQKPGQSPKLLIYWASSRHTGVPDRFTGSRSGTDFTLTISSVQSEDLADYFCQQYSSYPLTFGGGTNLEIK", "values": [{"measurement": "EC50", "setting": "[1]", "result": 0.9, "unit": "µg/mL"}, {"measurement": "MFI FC (fold change of mean fluorescence intensity)", "setting": "[2]", "result": 2.8, "unit": "fold"}, {"measurement": "EC50", "setting": "[3]", "result": 1.72, "unit": "µg/mL"}]}
